Test results reported in the nanobody polyreactivity screen of Harvey et al. (2022).

Test: yeast display, Sf9 membrane polyspecificity reagent, FACS + sequencing; frameworks hold sequencing errors
How it was run: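 Genes from sorted yeast were amplified by colony PCR, read by MiSeq 2 × 250 sequencing and filtered on CDR length. These cells carried a synthetic nanobody library in Saccharomyces cerevisiae BJ5465 and were sorted by FACS into low and high (top ~1%) gates on anti-HA and streptavidin fluorescence. Polyreactivity is labelled according to the gate of origin.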
In the case of “QVHLVESGGGLVQAGVSLRLSCAAYVRIFGRNAMGWYRQAPGKEREFVAAITYSGTSTYYADSVKGRFTISRDNAKNTVYLQMNSLKREDTAVYYCNAQYLPSHVYGRYSSTFNYWGQGTQLTVSS”, the “polyreactivity (PSR sort gate)” value is reported as “low polyreactivity”. For “QVHLVESGGGLVQAVSSLRLSCAASGSTFRAYAMGWYRQEPGKDRELVARITFSGGSTYYADSVKGRFTISRDNAKNTVYLQMNSLKPEDTAVYYCNARRTYLDRYNYWGQGTQVTVSS”, the “polyreactivity (PSR sort gate)” value was “high polyreactivity”. With “QVHLVESGGGVVQAGGSLRLSCAASGRIFPSYDRGWYRQAPGKERELVATISSRGDSTYYADSVKGRFTISRDNAKNTVYLQMNSLKPEDTAVYYCAAERPFWEYDYWGQGTQVTVSS” the “polyreactivity (PSR sort gate)” value was “low polyreactivity”. With “QVHLVESGGRLVQAGGSLRLSCAASGGTFYQYTMGWYRQAPGKERELVAAITRSGGSTRYADTVKGRFTISRDNAKNTVYLQMNSLKPEDTAVFYCAARSGYPSFEYWGPGTQVTVSS” the “polyreactivity (PSR sort gate)” value was “high polyreactivity”. With “QVHLVESGGVLVQAGGSLRLSCAASGSIFAKYAMGWYRQAPGKERELVAAISRSSVRTRYADSVKGRFTISRDNAKNTVYLQMNSLKPADTAVYYCNAYYRSYAYSHLDYWGQGTQVTVSS” the “polyreactivity (PSR sort gate)” value was “high polyreactivity”. With “QVHLVESGGVLVQAGGSLRLSCAASGSPFTKYAMGWYRQAPGKERELVAAFTGGGGSTYYADSVKGRFTISRDNAKNTVYLQLNSLKPEDSAVYYCAAKVALSRFRQWSYDYWGQGTQVTVSS” the “polyreactivity (PSR sort gate)” value was “low polyreactivity”. With “QVHLVESGRGLVQAGGSLRLSCAASGSTFGWNTMGWYRQAPAKERELVAAISWSGDRTYYADSVKGRFTISRDNAKNTVYLQMNRLKPEDTAVYYCARQRYYGYYYWGQGTQVTVSS” the “polyreactivity (PSR sort gate)” value was “high polyreactivity”. With “QVHLVESGVGLGQAGGSLRLSCAASGSIFYSNAMGWYRPAPGKERELVATITWSGGRTYYADSVKGRFTISRDYAKNTFYLQMHSLKPEDTAVYYCAAVSIYWGHGTQVTVSS” the “polyreactivity (PSR sort gate)” value was “low polyreactivity”. In the case of “QVHLVESGVGLVQAGGSLRLSCAASGRIFFANPIGWYRQAPGKERELVAANSRGGRTNYADSVKGRFTISRDNAKNTVYLQMNSLNPEDTAVYYCAAVRLSHAPSYYLYGMDYWGQGTQVTVSS”, the “polyreactivity (PSR sort gate)” value is reported as “low polyreactivity”. With “QVHLVESGVGLVQAGGSLRLSCAAYGYTFTRNAKGWSRQAPGKERELVAAISKRGGTTYYADSVKGRFTISRDNEKYSVYLQMNSLKPEDTAVYYCAKDGGITGGYWGQGTQVTVSS” the “polyreactivity (PSR sort gate)” value was “high polyreactivity”. For “QVHLVESGVGLVQAGGSLRLSCASSGRIFYDNSMGWYRQAPGKERELVAAISYRGGSTYYADSVKGRFTISRDNAKNTVYLLMNSLKPEDTAVYYCARAGFTTCPDHDSWGQGTQVTVSS”, the “polyreactivity (PSR sort gate)” value was “high polyreactivity”. In the case of “QVHLVESGVGLVQAGVSHRLSCAASGSTYRGYAMGWYRQAPGKERELVAPITYISDSTYYADSVKGRFTISRDNAKNTVYLQMNSLKPEDSAVYYCNDYYDGDWRYTSQETGDNWGQGTQVTVSS”, the “polyreactivity (PSR sort gate)” value is reported as “low polyreactivity”. In the case of “QVHLVESVGGLLQAGGSLPLSCPASGSTFYDYAMGWYRPAPGKERELVASITTGGDSTYYADSVKGRFTISRDNAKNSVYLQMKSLIPEDSAVYYFNADWYYWFSNYQGAPEMDYWGQGTQVSVSS”, the “polyreactivity (PSR sort gate)” value is reported as “high polyreactivity”. For “QVHLVESVGGLVQAGGSLRLSCAASGRIFGYYAMGWYRQAPGKERELVAAISTNGGTTYYADSVKGRFTISRDNAKNTVYLQMNSLKPEDTAVYYCAATYTVPGHARYDYWGQGTQVTVSS”, the “polyreactivity (PSR sort gate)” value was “low polyreactivity”. In the case of “QVHLVESVGGLVQAGGSLRLSCTASGSTCVAYDMGWYRQAPGQERDLVAAITSSGGRTYYADSVKGRFKFSLDNAMNTVYLQMNSLKPEDTAVYYCAAVTHGRYDWGQGPQVTVSS”, the “polyreactivity (PSR sort gate)” value is reported as “high polyreactivity”. For “QVHLVESVGGLVQAGGSLRLSSAASGSTFGYYAMGWYRQAPGKERELVAAINARGGSTYYADSVKGRFTISRDNAKNTVYLQMNSLKPEDTAVYYCAAVHIYSYGIYDYWGQGTQVTVSS”, the “polyreactivity (PSR sort gate)” value was “high polyreactivity”. In the case of “QVHLVESVGRLVQEGGSLRLICAASAFNIYTYAMGWSRQAPGKEREMVAAISKSGGSTYSADSVKGRFTISRDNAKNTVYVQMNSLKPVDTAVYYCAVSDARHLGSGRYYWCQGTQVTVSS”, the “polyreactivity (PSR sort gate)” value is reported as “low polyreactivity”. With “QVHLVETGGALVQAGGSLRISCAASGLTFLDYAMGWYRQSTGKERELGAAITSGGSTNYADSVKGRFTISGDNATTTVYFQMISLKPEDTAVYYCATDLEVSAYDYWGQGNQVTVSS” the “polyreactivity (PSR sort gate)” value was “low polyreactivity”. In the case of “QVHLVETGGCLVQAGGSLRLSCAASGRTFYQNTMGWYRQAPGKERELVAAISSGGSTHYADSVKGRFTISRDNAKNTVYLQMNSLKPEDTAVYYCAKRYFYSYRYGYWGQGTQVTVSS”, the “polyreactivity (PSR sort gate)” value is reported as “high polyreactivity”. In the case of “QVHLVETGGGLVQAGGSLRLSCAASGITFDQYAMGWYRQAPGKERELVAAITGSGGNTYYADSVKGRFTISRDNAKNTVYLQMNSLKPEDTAVYSCGAAVGRARDYWGQGTQVTVSS”, the “polyreactivity (PSR sort gate)” value is reported as “low polyreactivity”. For “QVHLVQSGGGIDQAGGSLRLSCAASGSTYVVNTMGWYRQAPGKDRELVAANTQSGGSTFYADSVKGRFTISRDNAKNTVYLHMTSLKAEDTAVYYCNAGDFEGAVVVFIQHGGYYWGQGTQVTVSS”, the “polyreactivity (PSR sort gate)” value was “low polyreactivity”. In the case of “QVHLVVSGGGLVQAGGSLRLSCAAYGRTFRIYAMGWYRQAPGKDRELVARITKRAGSTYYADSVKGRFTISRDNAKNTVYLQMNRLKPEDTSVYYCAADVRVQYRQDLTYDYWGQGTQVTVSS”, the “polyreactivity (PSR sort gate)” value is reported as “high polyreactivity”. In the case of “QVHLVVSWGGLVQAGGSLRLSCSASGITFKRYAMGWYRQSRGNERELVAAINWNGCGTYYADSVKGRFTISRDNAKNTVYLQMNSLKPEDTAVYYCAAGLAYWYWRGYDYWGQGTQVTVSS”, the “polyreactivity (PSR sort gate)” value is reported as “high polyreactivity”. With “QVHRVESGGGLVQAGASLRLSCAASGIIFDTYAMGCYRQAPGKEREIVAAITWNGGSTYYADSVKGRFTISRDNAKNPVYLQMNSLKPEDTPVYYCAKLPRTLTEYGYKGYYWGQGTQVTVSS” the “polyreactivity (PSR sort gate)” value was “low polyreactivity”. For “QVHVVESGGGLVQAGGSLGLSCAASGITFTAYAMGWYRQAPGKERELVATINSTGITNYADSVKGRFTISRDNSKNTVFLQMNSLKPEDTAVYYCAADLLDISSYDGMDYWGQGTQVTVSS”, the “polyreactivity (PSR sort gate)” value was “low polyreactivity”. With “QVHVVESGGGLVQAGGSLRLSCAASGRTFYGYAMGWYRQAPGKERELVAGITSGGNTNYADSVKGRFTISRDNAKNTVYLQMNSLKPEDTAVYYCAADRYSFRGDYYWGQGTQVTVSS” the “polyreactivity (PSR sort gate)” value was “low polyreactivity”. With “QVKIVESGGGLVQAGGSLRLSCAATGITFAWYAMGWYRQAPGKERELVAAITWSGDSTYYADSVKGRFTISRDNAKNTVYLQMKSLKPEDTAVYYCAAEGLVFWFGTPYDYWGQGTQVTVSS” the “polyreactivity (PSR sort gate)” value was “high polyreactivity”. With “QVKLEESAGGLVQSGGSLRISCAASGSTLVSNAMGWYRQAPGQERELVADNSLSGGSTYYADSVKGRFTISRDYAKNTVYLQMNSLKPEDTEVYYCARVAPSSGVRWYYYWGQGTQVTVSS” the “polyreactivity (PSR sort gate)” value was “high polyreactivity”. For “QVKLEESGGGLVQEGGSLRISCAASVRIFGNYSMGWSRQAPGKEMELVAAIDLSGDSTYYADSVKGRFTISRDNAKNTVYLQMNSLKPEDTAVYYCAATDWFSEYYWGQATQVTVSS”, the “polyreactivity (PSR sort gate)” value was “low polyreactivity”. With “QVKLLDSGGGLVQAGGSLRLSCAASGRNFYYYAMGWYRQAPGNERELVAAISSCGSTYADSVKGRFTISRDNAKTTVYLQMNSLKPEDTAVYYCAAYLSRLGPSGYYYWGQGTQVTVSS” the “polyreactivity (PSR sort gate)” value was “high polyreactivity”. For “QVKLLESGGGLVQAGGSLRLTCAASGFIFRRYTMGWYRHAPGEEREWVAAISITGSRTYYADSVKGRFTISPDNAKNNVYLQMNSLKPEDTAVYYCAADPDKSSAGDFDYWGHGTQVTVSS”, the “polyreactivity (PSR sort gate)” value was “high polyreactivity”. For “QVKLLESGGGLVQSGGSLRLSCAAYAIIFRWYTMGGYRQAPGKERQLVAAISTSTGSTYYADSVKGRFTISRDNAKNTVYLQMNSLKPEDTAVYYCAADYAYWNYESYYWGQGTQVTVSS”, the “polyreactivity (PSR sort gate)” value was “high polyreactivity”. For “QVKLQESGDGLVQAGGSLRLSSAASGTIFSDYGMGGYRQAPGKERELLAGISDGCNTNYTDSVKGRFTISRDNAHRVSADEQPETGGYRGVLLRGSERWLLFFVYWGQGTQVTVSS”, the “polyreactivity (PSR sort gate)” value was “high polyreactivity”. For “QVKLVASGGGLVQEGGSLRLSCAASGRIFGNYAMGWYRQAPGKERELVAAIDLSGDSTYYADSVKGRFTISRDNAKNTVYLQMNSLKPEDTAVYYCAADPDLLWEYSDGYYGGDGGYWGQGTQVTVSS”, the “polyreactivity (PSR sort gate)” value was “low polyreactivity”. In the case of “QVKLVDSGGGLVQAGGSLRLSCAASGNIFYRYAMGWYRQAPGKERELVAAISGNSGNTYYADSVKGRFTISRDNAKNTVYLQMNSLKPDDTAVYYCAAERRAFGHYSWGQGTQVTVSS”, the “polyreactivity (PSR sort gate)” value is reported as “high polyreactivity”. In the case of “QVKLVDSGGGLVQAGGSLRLSCAASGSIFGAYAMGWYRQAHGKERELVAPITLRDGSTYYADSVKGRFTISRDNAKNTVYLQLNSLKPEDTAVYYCATYYSAINYGWSKTILYDYWGQGTQVTVSS”, the “polyreactivity (PSR sort gate)” value is reported as “low polyreactivity”. With “QVKLVESAGCLVQAGGSLRLSCAASGRIFRRYAMGWYRQSTGKESELVAAISSRGGLTYYADSVKGRFTISRDNAKNTVYLLMNSLKTEDTAVYYCAAYYFVTETYGPYEYWGQGTQVTVSS” the “polyreactivity (PSR sort gate)” value was “high polyreactivity”. With “QVKLVESCGGLVQAGGSLRLSCAASGYISSFNTKGWYRQAPGKERELVAAITRDGSTYYADSVKGRFTISRDNAKNSVYLQMNSLKPEYTAVYYCAARGWYATWLYYYWGQGSQVTVSS” the “polyreactivity (PSR sort gate)” value was “high polyreactivity”. With “QVKLVESGGALVQAGCSLRLSCAASARTFPVYAMGWYRQAPGKERELVAAIRYSAGSTYYADSVKGRFTISRDNAKITVYLQMNSLKPEDSSVSYCARTTPTGRQYRRYDYWGQGTQLTVSS” the “polyreactivity (PSR sort gate)” value was “low polyreactivity”. With “QVKLVESGGCLVQEGGSHRLSCAASGYIFDAYAMGWYRQAPGQERELVAAIDIGGSTYYADSVKGRFTISRDNAKNTVYLQMNSLKPEDTAVYYCAVWFYFDQWDYAREYWGQGTQVTVSS” the “polyreactivity (PSR sort gate)” value was “low polyreactivity”. In the case of “QVKLVESGGCLVQSGGSLRLSCADYRSIFWNNSMGWYRQATGKEWELGAGISSAGSTNYSDSVKGRFTISRDNAKNTVYLQMNSLKPEDTAVYYCAAEQYRYGIRRRHYDYWGQGTQVTLSS”, the “polyreactivity (PSR sort gate)” value is reported as “low polyreactivity”. With “QVKLVESGGGIVQAGGSLRLSCAASGRTFGRNAMGWYRQAPGKERELVASITKRGGSTYYADSVKGRFTISRDNAKDTVYLQMNSLKPEDTAVYYCAVEAYDYWGQGTQVTVSS” the “polyreactivity (PSR sort gate)” value was “high polyreactivity”. In the case of “QVKLVESGGGLDQAGGSLRLSCAASGSTILQTAMGGYRQAPGKARELVASISRGGSTNYADSVKGRFTISRDNAKTSVYLQMNSLKPEDTEVYFCATRSRRSASPVVYHAYYYWGQGTHVTVSS”, the “polyreactivity (PSR sort gate)” value is reported as “high polyreactivity”.
